This assay addresses 人IgG蛋白 (human). Nature of the assay: BLI (Octet RED96), human IgG loaded on the sensor, nanobody at 50 μg/mL in solution.

B1: 抗免疫球蛋白G的Fc段的纳米抗体 (编号为I4的阳性克隆) (VHH)
VHH: QVQLVESGGGLVQAGGSLRLSCAASGGTFYSYAMGWFRQAPGKKREFVAAIRWTSGITYYADSVKDRFTISRDNAKNTVYLQMTGLKPEDTAVYYCALGPDNSDSYDYWGQGTQVTVSS
The molecule B1 displayed a Kd of 3.69 nM, a koff of 0.00157 s⁻¹ and a kon of 426000 M⁻¹ s⁻¹.

The values above are taken from patent CN109776681A.
